Measured values published in PMC3645478.

Target: I-E^k (mouse MHC class II molecule, α- and β-subunits, six-histidine-tagged) (mouse)
Assay: peptide exchange induced by ultraviolet irradiation

How did the percent of Lys99ANP–I-E^k converted into Cy3-labeled MCC–I-E^k turn out when “MCC peptide labeled with indocarbocyanine (Cy3)” was run?
The percent of Lys99ANP–I-E^k converted into Cy3-labeled MCC–I-E^k was 30%.
